These results are taken from article PMC8349896 (Molecular cell, 2021).

The target in one data set is T1, gp16-N (bacteriophage T7, UniProt P03726 1-228).
T1 sequence: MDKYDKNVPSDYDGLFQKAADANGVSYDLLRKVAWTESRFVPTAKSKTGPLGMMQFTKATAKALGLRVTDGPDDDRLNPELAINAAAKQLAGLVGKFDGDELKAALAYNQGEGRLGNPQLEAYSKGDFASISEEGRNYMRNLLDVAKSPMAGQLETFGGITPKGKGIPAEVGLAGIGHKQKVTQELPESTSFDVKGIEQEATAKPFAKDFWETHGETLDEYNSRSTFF
Put plainly: EMSA. Background: In EMSA bound probe runs differently from free probe, usually more slowly.

The next data set deals with T2, gp16-C (bacteriophage T7, UniProt P03726 275-1318).
T2 sequence: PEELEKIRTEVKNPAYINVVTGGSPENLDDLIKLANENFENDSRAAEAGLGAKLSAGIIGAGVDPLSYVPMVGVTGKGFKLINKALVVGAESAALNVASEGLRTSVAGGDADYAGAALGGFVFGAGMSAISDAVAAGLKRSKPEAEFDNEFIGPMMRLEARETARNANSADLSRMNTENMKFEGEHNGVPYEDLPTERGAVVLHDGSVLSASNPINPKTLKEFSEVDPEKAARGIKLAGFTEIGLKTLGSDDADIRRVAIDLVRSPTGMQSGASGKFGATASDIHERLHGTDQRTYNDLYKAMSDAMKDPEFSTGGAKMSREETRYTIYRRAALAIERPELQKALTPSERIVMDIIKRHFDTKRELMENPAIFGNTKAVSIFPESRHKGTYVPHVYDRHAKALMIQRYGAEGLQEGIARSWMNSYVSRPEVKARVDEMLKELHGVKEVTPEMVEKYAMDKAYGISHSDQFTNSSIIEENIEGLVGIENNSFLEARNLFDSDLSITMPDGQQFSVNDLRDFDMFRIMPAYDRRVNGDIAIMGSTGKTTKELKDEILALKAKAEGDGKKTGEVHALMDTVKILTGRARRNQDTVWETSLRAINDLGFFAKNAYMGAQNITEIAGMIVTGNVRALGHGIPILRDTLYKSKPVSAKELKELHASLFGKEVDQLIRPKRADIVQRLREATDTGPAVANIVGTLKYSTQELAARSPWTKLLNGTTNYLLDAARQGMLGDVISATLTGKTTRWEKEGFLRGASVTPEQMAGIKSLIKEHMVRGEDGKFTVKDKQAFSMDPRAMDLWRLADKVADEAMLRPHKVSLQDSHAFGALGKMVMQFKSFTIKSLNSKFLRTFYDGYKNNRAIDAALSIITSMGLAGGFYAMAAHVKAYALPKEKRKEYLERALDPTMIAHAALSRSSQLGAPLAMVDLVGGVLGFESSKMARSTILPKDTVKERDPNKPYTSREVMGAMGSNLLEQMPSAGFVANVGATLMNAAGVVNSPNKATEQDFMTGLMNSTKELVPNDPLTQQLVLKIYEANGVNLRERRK
Put plainly: EMSA.

The data set “SEC” deals with the molecule itself. Briefly: SEC. (In general: In gel filtration, larger molecules generally elute earlier.)
Data set [1] has as its target T3, bacteriophage T7 ejection protein gp15, full length (bacteriophage T7, UniProt P03725 1-747).
T3 sequence (looked up): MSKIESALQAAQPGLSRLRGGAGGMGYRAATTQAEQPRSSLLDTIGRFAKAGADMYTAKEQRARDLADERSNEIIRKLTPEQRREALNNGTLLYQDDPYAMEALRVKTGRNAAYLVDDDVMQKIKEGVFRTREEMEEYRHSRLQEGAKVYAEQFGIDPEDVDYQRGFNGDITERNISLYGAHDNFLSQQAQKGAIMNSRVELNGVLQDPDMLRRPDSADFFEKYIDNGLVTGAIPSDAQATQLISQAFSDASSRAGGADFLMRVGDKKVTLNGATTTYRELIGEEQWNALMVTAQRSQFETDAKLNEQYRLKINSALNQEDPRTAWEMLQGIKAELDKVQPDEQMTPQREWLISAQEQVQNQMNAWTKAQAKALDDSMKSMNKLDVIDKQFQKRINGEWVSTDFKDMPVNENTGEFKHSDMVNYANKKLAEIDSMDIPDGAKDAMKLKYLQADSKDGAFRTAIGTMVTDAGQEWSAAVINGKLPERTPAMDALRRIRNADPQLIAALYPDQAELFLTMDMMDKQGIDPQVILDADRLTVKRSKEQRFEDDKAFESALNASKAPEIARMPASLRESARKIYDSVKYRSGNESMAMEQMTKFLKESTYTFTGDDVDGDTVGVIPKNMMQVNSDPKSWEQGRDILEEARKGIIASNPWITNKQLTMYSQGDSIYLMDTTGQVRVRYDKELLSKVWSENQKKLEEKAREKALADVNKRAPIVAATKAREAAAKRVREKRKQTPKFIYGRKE
Put plainly: native gel or EMSA.

B1: Cy3-dsDNA 24-mer (dsDNA)
DNA 1: GCACTGCAGTAACTTGTCAGTCAT
DNA 2: ATGACTGACAAGTTACTGCAGTGC
Turning to B1, the binding result with gp16-N is “no binding”; with gp16-C it was “binds”.

B2: bacteriophage T7 ejection protein gp14 (natural protein, UniProt P03724 1-196, looked up)
chain: MCWAAAIPIAISGAQAISGQNAQAKMIAAQTAAGRRQAMEIMRQTNIQNADLSLQARSKLEEASAELTSQNMQKVQAIGSIRAAIGESMLEGSSMDRIKRVTEGQFIREANMVTENYRRDYQAIFAQQLGGTQSAASQIDEIYKSEQKQKSKLQMVLDPLAIMGSSAASAYASGAFDSKSTTKAPIVAAKGTKTGR
Take B2: the binding result in “SEC” is “binds”.

B3: gp16-N (bacteriophage T7 gp16 residues 1-228) (domain or fragment, UniProt P03726 1-228, looked up)
chain: T1 sequence
For B3, the binding result in data set [1] is reported as “binds”.
